Paper PMC6305486, “Structural Insights into the FtsQ/FtsB/FtsL Complex, a Key Component of the Divisome” (Scientific Reports, 2018)

T1: e5-FtsB_(25–103) (E. coli, UniProt P0A6S5 25-103)
T1 chain: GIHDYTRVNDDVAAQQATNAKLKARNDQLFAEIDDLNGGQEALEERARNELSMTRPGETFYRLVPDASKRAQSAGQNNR


Assays:
Conditions in all cases: both partners purified
e5-FtsB_(25–103) = biological target: T1, e5-FtsB_(25–103); test: SEC; analytical gel filtration, Superdex 200 10/300 GL, buffer B (20 mM Tris-HCl pH 8.0, 200 mM NaCl), 0.5 mL/min; high concentrations (101–370 μM); apparent Stokes radius compared with radii calculated from models
FtsQ_(50–276) [1] = biological target: T2, FtsQ_(50–276) (E. coli, UniProt P06136 50-276); test: as above
T2 construct: pET21a; also called periplasmic domain of FtsQ; WT FtsQ; source: for the complexes purified together with its partners from mixed cell pellets

FtsQ_(50–276) [2] = biological target: T2, FtsQ_(50–276); test: BLI; BLItz; GST-fused FtsB proteins or GST-e5-FtsB/k5-FtsL complexes immobilised on AR2G biosensor by amine coupling; FtsQ_(50–276) (WT or Y248A) in solution, 0.1–80 μM; running buffer 20 mM Tris-HCl pH 8.0, 200 mM NaCl; equilibrium analysis of points at 100 s

T2 sequence (P06136 50-276): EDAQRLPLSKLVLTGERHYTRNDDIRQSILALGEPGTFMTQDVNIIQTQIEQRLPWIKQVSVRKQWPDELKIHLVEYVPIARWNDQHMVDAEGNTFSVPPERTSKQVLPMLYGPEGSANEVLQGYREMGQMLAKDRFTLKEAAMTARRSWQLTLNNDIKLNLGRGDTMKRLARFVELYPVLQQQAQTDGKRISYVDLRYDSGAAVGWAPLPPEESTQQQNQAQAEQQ

Row | Kd (FtsQ_(50–276) [2]) [nM] | Binder | other results
1 |  | k5-FtsL_(64–121) (domain or fragment) TAQREQLVLERDALDIEWRNLILEENALGDHSRVERIATEKLQMQHVDPSQENIVVQK | stoichiometry N (e5-FtsB_(25–103)): 1 FtsB:FtsL ratio (2:2)
2 |  | FtsB_(25–103) L46P (domain or fragment, E. coli, UniProt P0A6S5 25-103, looked up, also called FtsQB L46P mutant) GIHDYTRVNDDVAAQQATNAKPKARNDQLFAEIDDLNGGQEALEERARNELSMTRPGETFYRLVPDASKRAQSAGQNNR | binding result (FtsQ_(50–276) [1]): binds
3 | 670 | GST-fused FtsB_(25–103) (domain or fragment, E. coli, UniProt P0A6S5 25-103, looked up, pGST2; source: E. coli BL21 (DE3), purified (glutathione-Sepharose, gel filtration); not shown: GST, N-terminal, kept) GIHDYTRVNDDVAAQQATNAKLKARNDQLFAEIDDLNGGQEALEERARNELSMTRPGETFYRLVPDASKRAQSAGQNNR | 
4 | 900 | NGGQEALEERARNELSMTRPGETFYRLVPDASKRAQSAGQNNR (domain or fragment, E. coli, UniProt P0A6S5 61-103, looked up, pGST2; source: E. coli BL21 (DE3), purified (glutathione-Sepharose, gel filtration); not shown: GST, N-terminal, kept) [GST-fused FtsB_(61–103)] | 
